Experiment: label from the status in PepcDB records

Row | Sequence | protein production
1 | MEAIRVFGPKLGSRLSIRSHTTAFPACKLSRFPLTSFPGKHAHLVLLKATTIPLASGDKENNRKFEKLGPSEWGNQFLFAHVDLSEMDALEREIEALKPKVRDMFMSFKGMKSNKKNLFLIYLLVSLGLAHHFEDEIEESVKGCSQEMVEMMDGENDLYTVSIIFWVFRTYGHNISSDIFNRFKGHNGKFKECLATDAKGILSLYEAAHMGTTTDYILDEALSFTLSYLESLAANGTCKPNLVRRIRNALGLLQNKNVEILVAKEYIRFYEQEEDCDKTILEFSMLNLKFLQLHYLQELKLLTKWYKEQDFESKLPPYYRDRIVELHLATLAYINPKYSRVRIILTMIYTIQIILDDTCDRYASLREVESLAATIERWDHNDHAMEGLPDYLKSVAKFIFHTFQEFEREVSSESGGSYSLKATIEDCKRMMRSNLQLAKWAVTGHLPSFDEYLDVAGVEIAVYFTVAGILLGMENINKKEAYEWLIFRDKLVRAMSTKARLVNDLFGYKDDMRRGYVTNSINCYKKQYGVTEEEAFRKLHQMVADGDKMMNEEFLKPINVPHQVLKAVLDTLRAINICYDNEDGFTRLNGNLKNYITSMYVDL | failed
2 | MEAKLSSIEIPVGQDELSGTLLTPTGMPGVLFVHGWGGSQHHSLVRAREAVGLGCICMTFDLRGHEGYASMRQSVTRAQNLDDIKAAYDQLASLPYVDAHSIAVVGLSYGGYLSALLTRERPVEWLALRSPALYKDAHWDQPKVSLNADPDLMDYRRRALAPGDNLALAACAQYKGDVLLVEAENDVIVPHPVMRNYADAFTNARSLTSRVIAGADHALSVKEHQQEYTRALIDWLTEMVVGRRIALAKEVVAARKQLLKEQQGDAVSLPGQGSREFRGDIRAVEKTSA | not failed
3 | MEAVLNELVSVEDLKNFERKFQSEQAAGSVSKSTQFEYAWCLVRSKYNEDIRRGIVLLEELLPKGSKEEQRDYVFYLAVGNYRLKEYEKALKYVRGLLQTEPQNNQAKELERLIDKAMKK | not failed
4 | MEDAAAPGRTEGVLERQGAPPAAGQGGALVELTPTPGGLALVSPYHTHRAGDPLDLVALAEQVQKADEFIRANATNKLTVIAEQIQHLQEQARKVLEDAHRDANLHHVACNIVKKPGNIYYLYKRESGQQYFSIISPKEWGTSCPHDFLGAYKLQHDLSWTPYEDIEKQDAKISMMDMLLSQSVALPPCTEPNFQGLTH | failed
5 | MEDETLGFFKKTSSSHARLNVPALVQVAALAIIMIRGLDVLMIFNTLGVRGIGEFIHRSVQTWSLTLVFLSSLVLVFIEIWCAFSLVKGRRWARWLYLLTQITAASYLWAASLGYGYPELFSIPGESKREIFHSLMLQKLPDMLILMLLFVPSTSRRFFQLQ | failed
6 | MEDGKQAINEGSNDASPDLDVNGTILMNNEDFSQWSVDDVITWCISTLEVEETDPLCQRLRENDIVGDLLPELCLQDCQDLCDGDLNKAIKFKILINKMRDSKLEWKDDKTQEDMITVLKNLYTTTSAKLQEFQSQYTRLRMDVLDVMKTSSSSSPINTHGVSTTVPSSNNTIIPSSDGVSLSQTDYFDTVHNRQSPSRRESPVTVFRQPSLSHSKSLHKDSKNKVPQISTNQSHPSAVSTANTPGPSPNEALKQLRASKEDSCERILKNAMKRHNLADQDWRQYVLVICYGDQERLLELNEKPVIIFKNLKQQGLHPAIMLRRRGDFEEVAMMNGSDNVTPGGRL | failed
7 | MEDIVHKYKVSVIICFFNSAETLDAMIKDAVNQTLKDKEIILIDDGSYDGSLEIAEKYANKYSFIKIFSQKNMGLSASRDKGLSEAQGEYVIYWDGDDSVESTMLEVLYNRAKADNSDIVCSQFYIYFLAINVKRKSLLPFPNYPLTGKEAFKNLLFTVYATFGRKNFVVGTLWDKLIRRELILKNNIRQQNVVFEDIVFVMQIFLKASKVSFVNNYFYTNFQRMGSMSSSISVLHKSKLSLNTMETLLKREGIFNECQNLYKKFFLQFYYFISFKQIYIISWNISDKLVYRAYKEKLISVLDEIKGLSEFQDCYEYAKSFGFNEIQILPRIMLKIWNFSSRLYVNFSIFIYKFFIKN | failed
8 | MEDIYKLIDDINLQKIENLDSRVNEALSSNNDDALFILGETLYNFGLTPQGLEVFRTLYHKYPDESELLIYFIEGLMSENQTDEALEYLAQVEPSTEKLMLEADLYQQINMLEVAIDKLQEALDLEPNDPIIHFALAELLYYDGQYLRATREYETVLETGEYEVNGVNIFSRMADCSLQSGNYSDAISLFDEINEEEMNSEDYFKKSIAYEKNDLTQEAIKIMQTLLSKDPDFIQGYFYLQSLFENEKNYPDAIETGKEGLRLSQFYKELMVSTGSLEIEHGDANEGVELLKQALEVDNAYHEPLLILSDLYRNEEDYESIIQLLTYVDEEDLDPIFMWHLAYAYGQEERDKEAQHFFELAYPTLQTQVEFLSDYYFYLLEIGQKEKAILILNQLLEIDPSNENWHDESMRLQI | failed
9 | MEDLKGSHGLGLKIQLSRVCEVKPEVKPLPAGETPSCGFARLDRRCLCGHRATLIPLGLPIAPRPPPSRCPFLKPSLPYVPGPEYGKQRPSCPVPIMSEVTKELLELVWGTKSSPGLSDTIFCRWTQGFVFSDSEGSALEQFEGGPCAVIAPVQAFLLKKLLFSSEKSSWRDCSEDEQKELLCHTLCDILESACDSSGSYCMVSWLRGRTTEDAARISGSPAQSSCQVGHSSALAVEELGFERFHALIQKRSFRTVSELKDAVLDQYSMWGNKFGVLLFLYSVLLTKGIENIKNSIEDANEPLIDPVYGHGSQSLINLLLTGHAVSNVWDGDRECSGMQLLGIHEQATVGFLTLMEALRYCKVGSYLKSPKFPIWIVGSETHLTVFFAKDMALVAPEAPSEQARRVFQTYDPEDNGFIADTLLEDVMKALDLVSDPEYINLMKNKLDPEGLGIILLGPFLQEFFPDQGSSGPESFTVYHYNGLKQSNYNEKVMYVEGTAVVMGFEDPMLQTDDTPIKRCLQTKWPYIELLWTTDRSPSLN | failed
10 | MEDPLGRLEWIKFLSAFYDKEDKAENYFNQQVSKVMATENKVSSLKKPKVAFGMVDNGKVYIPAKNSYAAKMVDMAGGDYIFKDLNNKSGYITLEDFYSKSKDADVLIYSSSKEYTPSLKSMLSAAPILKTIKPVKNKKVWCFGKDYYQAIDKTDEIIEDLASIFHPESFKGYKIKHYSHLEHHHHHH | not failed
11 | MEDRIPVIKRFTGGGTVIVDKSTLFVSLICNKDDVPNVQPYPRSVMAWSGSLYDEVFKSVNGFQLRENDYVFGDRKFGGNAQSIIKNRWIHHTSFLWDYDVRNMAYLKLPSRVPQYRLERDHTDFVCRMKDYIERSDFVEKTVKAVRNQFTLKQVNLEDIDSYAKGGYLKTTRLLTMEELEEAMADTIQNT | failed
12 | MEDSTATATSSSSTHYFSIFTNYPLISAVTSFTIAQFIKLFTSWYRERRWDLKQLIGSGGMPSSHSATVTALAVAIGLQEGFGGSHFAIALILASVVMYDATGVRLHAGRQAEVLNQIVYELPAEHPLAESRPLRELLGHTPPQVCRHMT | failed
13 | MEEAKGPVKHVLLASFKDGVSPEKIEELIKGYANLVNLIEPMKAFHWGKDVSIENLHQGYTHIFESTFESKEAVAEYIAHPAHVEFATIFLGSLDKVLVIDYKPTSVSL | not failed
14 | MEEAPQVGDRLHCYWNLVSKDREKVFEAVVTDVETVSFRELRENDELAREDGFRDAKQLEEEFQRMYQGELTDDTEFQVIRFRKLPVDEWEGKRIDEKAMITRRADILFDSGKFSKSELCYTAALRIDPNDVYILNRLGDNLTRLGRFDEALENYRRAIMIEPENPYIWNNMAITLLNAGRVDEALEASERALKIKHDPDLLYWRGVMLEVAGKPLEALESYERSLEIDPRNAEVWTARGNLLSDLGRMEEAIESYNSALELALEDEQDPNVWNRKGNALLELERFNEALECYRRAIEMEPENDVYWTNMGVALLELERFDEALEAFNRALMINPKNEDAGILREECLENL | failed
15 | MEEFAVVIIGAGPAGGQCARQLAQQGVRVLLVEQHSNFSQNNYSSAASPLETMALFDLPPGVVARYWRNLAIAATEKEQIWYSDQPRGVVFDFAKLRQFLADTVTKAGGQVWLGHRFWGYQQVGDGLEVTLRRSSKNSLSSDSVEKVEKVTVKTQVLIDATGSKRAVINCGQPKATDNNQYYRGIGTEYLITVDETTHQRFADTLVFFLGYRWSPQGYSWIFPMDNHQLKVGTAIFAGQHRYLGELKPLRSYTEAIIRDYLKLEKSQYHLEEIHGSVLDYAVNQGDTYHRGSVLAIGDAVSTVNFLGGEGIRHGMQGANIAVPFVADYLRGHVQAFEKYEQAMKAHFAEPWQRTEKLSQRVYLEFGDRQIDLGVTYLSYLRYDDVLDLLFHYRFDRIYGGITPLLLKKVAQFSQQCRQWLRKLSPLEHHHHHH | failed
16 | MEEGPIKKKLKSAGQGSGKTDAFRNFEQFFFRLNTLYTFLICRKHVVPTFKTLCGPIETALKRTVTKEDLAMVMALMPRECVFKYIDENQIYTETKIFDFNNGGFQQKENDIFELKDVDDQNQTQKSTQLLIFEFIDGTMQRSWSASDRFSQIKIPTYTTEEMKKMISKREALFKSRLREFILEKEKANLDPFSELTNLAQKYIPRERDYEDPIEAMMKAKQESNEMSIPNYSNNSVITTIPQMIEKLKSTEFYASQIKHCFTIPSRTAKYKGLCFELAPEVYQGMEHENFYSHQADAINSLHQGENVIITTSTSSGKSLIYQLAAIDLLLKDPESTFMYIFPTKALAQDQKRAFKVILSKIPELKNAVVDTYDGDTEPEERAYIRKNARVIFTNPDMIHTSILPNHANWRHFLYHLKLVVVDELHIYKGLFGSHVALVMRRLLRLCHCFYENSGLQFISCSATLKSPVQHMKDMFGINEVTLIHEDGSPTGAKHLVVWNPPILPQHERKRENFIRESAKILVQLILNNVRTIAFCYVRRVCELLMKEVRNIFIETGREDLVTEVMSYRGGYSASDRRKIEREMFHGNLKAVISTNALELGIDIGGLDAVLMCGFPLSMANFHQQSGRAGRRNNDSLTLVVASDSPVDQHYVAHPESLLEVNNFESYQDLVLDFNNILILEGHIQCAAFELPINFERDKQYFTESHLRKICVERLHHNQDGYHASNRFLPWPSKCVSLRGGEEDQFAVVDITNGRNIIIEEIEASRTSFTLYDGGIFIHQGYPYLVKEFNPDERYAKVQRVDVDWVTNQRDFTDVDPQEIELIRSLRNSDVPVYFGKIKTTIIVFGFFKVDKYKRIIDAIETHNPPVIINSKGLWIDMPKYALEICQKKQLNVAGAIHGAQHAIMGMLPRFIVAGVDEIQTECKAPEKEFAERQTKRKRPARLIFYDSKGGKYGSGLCVKAFEHIDDIIESSLRRIEECPCSDGCPDCVAASFCKENSLVLSKPGAQVVLHCILGHSEDSFIDLIKDGPEPNMPEIKVETVIPVSEHVNFSDDFKIIDVRRATKDDTHTNEIIKKEI | failed
17 | MEEGVNMDIRPTRIELIRTRRRIRLAKKGLDLLKMKRSALIYEFLQISRTIRGMKENLRKEVVEALNIIKVASVLEGSLALERIANMSSDSRINVNSRNVMGVNIPTLEVSYNLSILSDVYRTVSVPVAIDDSIRRFQKLFYDLILIVEKENSLRNLLMEIDRTKRRSNAIENILIPRLEYQAKMIKMTLDERERDTFTTLKTIKKKIEAENDLEHHHHHH | failed
18 | MEEHNANPLRFETNPYHNIVIKDRKVMELTGVKQIDSFDANEFLLETAQGWLMIQGKDLKLGKLDTERGDVIINGIIEALSYVSNKKGTAKETMMSKLFR | failed
19 | MEEKQERYSISEKTYQEFIDHTRVLALEERGIVQCGIATCRDFFSVYRKNQKKHMLLYTVRGKGWLESGACRYELEPGSLVVVPAGIENGFGMEDETWQIAWVFLSQHKEWSMVGENISYQLTPAPEVMYSCIQTLLRSINLSIDYGSAVGAHSVAQLELMLNMPSSESVSRNQLKLRRVFDLVQRQLHKDWSVEQLAALYPCSEPHLHRLTQQQFGRSPMAHLMRMRMEYAARLLRSTEWPIQHIGEIVGYPTSANFSTRFKAWSSMTPREFRQNGRIERDPEK | failed
